Experimental data reported in patent publication US20220098307A1 (WUHAN YZY BIOPHARMA, published 2022).
Changes are numbered by the printed parent chain. Names and notes keep the numbering of the source.

B1: M2IC-WT (bispecific antibody, human IgG1, kappa)
chain: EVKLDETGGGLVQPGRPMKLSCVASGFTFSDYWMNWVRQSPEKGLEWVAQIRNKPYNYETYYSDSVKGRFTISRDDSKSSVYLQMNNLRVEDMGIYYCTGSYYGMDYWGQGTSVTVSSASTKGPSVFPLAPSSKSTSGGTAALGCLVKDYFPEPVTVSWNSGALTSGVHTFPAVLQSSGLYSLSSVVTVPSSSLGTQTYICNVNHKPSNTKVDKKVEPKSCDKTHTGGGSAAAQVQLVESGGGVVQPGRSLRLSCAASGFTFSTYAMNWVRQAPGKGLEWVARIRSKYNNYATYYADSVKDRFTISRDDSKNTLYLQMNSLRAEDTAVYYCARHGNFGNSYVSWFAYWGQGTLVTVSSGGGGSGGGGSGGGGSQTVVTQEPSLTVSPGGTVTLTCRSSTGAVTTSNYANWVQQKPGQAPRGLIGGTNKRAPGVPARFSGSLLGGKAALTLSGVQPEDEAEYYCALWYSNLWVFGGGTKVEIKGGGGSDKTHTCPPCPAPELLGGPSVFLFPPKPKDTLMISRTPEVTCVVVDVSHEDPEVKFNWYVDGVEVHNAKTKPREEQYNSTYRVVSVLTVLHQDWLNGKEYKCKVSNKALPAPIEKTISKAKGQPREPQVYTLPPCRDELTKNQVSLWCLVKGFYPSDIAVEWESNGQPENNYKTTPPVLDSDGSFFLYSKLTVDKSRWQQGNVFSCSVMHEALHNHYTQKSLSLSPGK
heavy: EVKLDETGGGLVQPGRPMKLSCVASGFTFSDYWMNWVRQSPEKGLEWVAQIRNKPYNYETYYSDSVKGRFTISRDDSKSSVYLQMNNLRVEDMGIYYCTGSYYGMDYWGQGTSVTVSSASTKGPSVFPLAPSSKSTSGGTAALGCLVKDYFPEPVTVSWNSGALTSGVHTFPAVLQSSGLYSLSSVVTVPSSSLGTQTYICNVNHKPSNTKVDKKVEPKSCDKTHTCPPCPAPELLGGPSVFLFPPKPKDTLMISRTPEVTCVVVDVSHEDPEVKFNWYVDGVEVHNAKTKPREEQYNSTYRVVSVLTVLHQDWLNGKEYKCKVSNKALPAPIEKTISKAKGQPREPQVCTLPPSRDELTKNQVSLSCAVKGFYPSDIAVEWESNGQPENNYKTTPPVLDSDGSFFLVSKLTVDKSRWQQGNVFSCSVMHEALHNRFTQKSLSLSPGK
light: DVVMTQTPLSLPVSLGDQASISCRSSQSLVHSNGNTYLRWYLQKPGQSPKVLIYKVSNRFSGVPDRFSGSGSGTDFTLKISRVEAEDLGVYFCSQSTHVPWTFGGGTKLEIKRTVAAPSVFIFPPSDEQLKSGTASVVCLLNNFYPREAKVQWKVDNALQSGNSQESVTEQDSKDSTYSLSSTLTLSKADYEKHKVYACEVTHQGLSSPVTKSFNRGEC
notes: structure 2 isotype control; CH2 WT
B2: M2IC-AAG (bispecific antibody, human IgG1, kappa, L234A L235A)
chain: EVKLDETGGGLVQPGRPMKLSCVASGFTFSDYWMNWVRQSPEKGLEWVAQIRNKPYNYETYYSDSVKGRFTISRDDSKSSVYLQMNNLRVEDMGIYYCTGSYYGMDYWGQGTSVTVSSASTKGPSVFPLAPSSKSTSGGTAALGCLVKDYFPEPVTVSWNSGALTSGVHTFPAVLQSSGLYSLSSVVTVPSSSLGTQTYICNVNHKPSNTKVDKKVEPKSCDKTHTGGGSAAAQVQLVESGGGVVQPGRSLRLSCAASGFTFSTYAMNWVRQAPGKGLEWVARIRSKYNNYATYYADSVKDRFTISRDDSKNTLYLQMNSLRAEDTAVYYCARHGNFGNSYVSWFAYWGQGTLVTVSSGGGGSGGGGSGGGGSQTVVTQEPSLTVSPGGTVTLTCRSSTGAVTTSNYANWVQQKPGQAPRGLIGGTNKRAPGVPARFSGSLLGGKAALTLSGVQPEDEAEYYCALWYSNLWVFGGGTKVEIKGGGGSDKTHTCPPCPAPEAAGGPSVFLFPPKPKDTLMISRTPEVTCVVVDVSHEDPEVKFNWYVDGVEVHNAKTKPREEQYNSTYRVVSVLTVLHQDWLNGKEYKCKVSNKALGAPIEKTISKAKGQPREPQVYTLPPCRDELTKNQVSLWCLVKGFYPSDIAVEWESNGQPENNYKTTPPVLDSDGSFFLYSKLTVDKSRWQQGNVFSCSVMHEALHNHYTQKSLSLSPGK
heavy: B1 heavy with L235A, L236A, P330G
light: B1 light
notes: structure 2 isotype control; CH2 AAG
B3: M2IC-NA (bispecific antibody, human IgG1, kappa, N297A)
chain: EVKLDETGGGLVQPGRPMKLSCVASGFTFSDYWMNWVRQSPEKGLEWVAQIRNKPYNYETYYSDSVKGRFTISRDDSKSSVYLQMNNLRVEDMGIYYCTGSYYGMDYWGQGTSVTVSSASTKGPSVFPLAPSSKSTSGGTAALGCLVKDYFPEPVTVSWNSGALTSGVHTFPAVLQSSGLYSLSSVVTVPSSSLGTQTYICNVNHKPSNTKVDKKVEPKSCDKTHTGGGSAAAQVQLVESGGGVVQPGRSLRLSCAASGFTFSTYAMNWVRQAPGKGLEWVARIRSKYNNYATYYADSVKDRFTISRDDSKNTLYLQMNSLRAEDTAVYYCARHGNFGNSYVSWFAYWGQGTLVTVSSGGGGSGGGGSGGGGSQTVVTQEPSLTVSPGGTVTLTCRSSTGAVTTSNYANWVQQKPGQAPRGLIGGTNKRAPGVPARFSGSLLGGKAALTLSGVQPEDEAEYYCALWYSNLWVFGGGTKVEIKGGGGSDKTHTCPPCPAPELLGGPSVFLFPPKPKDTLMISRTPEVTCVVVDVSHEDPEVKFNWYVDGVEVHNAKTKPREEQYASTYRVVSVLTVLHQDWLNGKEYKCKVSNKALPAPIEKTISKAKGQPREPQVYTLPPCRDELTKNQVSLWCLVKGFYPSDIAVEWESNGQPENNYKTTPPVLDSDGSFFLYSKLTVDKSRWQQGNVFSCSVMHEALHNHYTQKSLSLSPGK
heavy: B1 heavy with N298A
light: B1 light
notes: structure 2 isotype control; CH2 N297A
B4: M2IC-FES (bispecific antibody, human IgG1, kappa)
chain: B3 chain with L501F, L502E, A564N, P598S
heavy: B1 heavy with L235F, L236E, P332S
light: B1 light
notes: structure 2 isotype control; CH2 FES
B5: CEA-M3-DG2 (bispecific antibody)
chain 1: QVQLVQSGSELKKPGASVKVSCKASGYTFTVFGMNWVRQAPGQGLEWMGWINTKTGEATYVEEFKGRFVFSLDTSVSTAYLQISSLKADDTAVYYCARWDFYDYVEAMDYWGQGTTVTVSSASTKGPSVFPLAPSSKSTSGGTAALGCLVKDYFPEPVTVSWNSGALTSGVHTFPAVLQSSGLYSLSSVVTVPSSSLGTQTYICNVNHKPSNTKVDKKVEPKSCGGGGSGGGGSQVQLVESGGGVVQPGRSLRLSCAASGFTFSTYAMNWVRQAPGKGLEWVARIRSKYNNYATYYADSVKDRFTISRDDSKNTLYLQMNSLRAEDTAVYYCARHGNFGNSYVSWFAYWGQGTLVTVSSASVAAPSVFIFPPSDEQLKSGTASVVCLLNNFYPREAKVQWKVDNALQSGNSQESVTEQDSKDSTYSLSSTLTLSKADYEKHKVYACEVTHQGLSSPVTKSFNRGECDKTHTCPPCPAPPVAGPSVFLFPPKPKDTLMISRTPEVTCVVVAVSHEDPEVQFNWYVDGVEVHNAKTKPREEQFNSTFRVVSVLTVVHQDWLNGKEYKCKVSNKGLPAPIEKTISKTKGQPREPQVYTLPPCRDELTKNQVSLWCLVKGFYPSDIAVEWESNGQPENNYKTTPPVLDSDGSFFLYSKLTVDKSRWQQGNVFSCSVMHEALHNHYTQKSLSLSPGK
chain 2: QTVVTQEPSLTVSPGGTVTLTCRSSTGAVTTSNYANWVQQKPGQAPRGLIGGTNKRAPGVPARFSGSLLGGKAALTLSGVQPEDEAEYYCALWYSNLWVFGGGTKVEIKSSASTKGPSVFPLAPSSKSTSGGTAALGCLVKDYFPEPVTVSWNSGALTSGVHTFPAVLQSSGLYSLSSVVTVPSSSLGTQTYICNVNHKPSNTKVDKKVEPKSC
heavy: QVQLVQSGSELKKPGASVKVSCKASGYTFTVFGMNWVRQAPGQGLEWMGWINTKTGEATYVEEFKGRFVFSLDTSVSTAYLQISSLKADDTAVYYCARWDFYDYVEAMDYWGQGTTVTVSSASTKGPSVFPLAPSSKSTSGGTAALGCLVKDYFPEPVTVSWNSGALTSGVHTFPAVLQSSGLYSLSSVVTVPSSSLGTQTYICNVNHKPSNTKVDKKVEPKSCDKTHTCPPCPAPPVAGPSVFLFPPKPKDTLMISRTPEVTCVVVAVSHEDPEVQFNWYVDGVEVHNAKTKPREEQFNSTFRVVSVLTVVHQDWLNGKEYKCKVSNKGLPAPIEKTISKTKGQPREPQVCTLPPSRDELTKNQVSLSCAVKGFYPSDIAVEWESNGQPENNYKTTPPVLDSDGSFFLVSKLTVDKSRWQQGNVFSCSVMHEALHNRFTQKSLSLSPGK
light: DIQMTQSPSSLSASVGDRVTITCKASQNVGTNVAWYQQKPGKAPKLLIYSASYRYSGVPSRFSGSGSGTDFTFTISSLQPEDIATYYCHQYYTYPLFTFGQGTKVEIKRTVAAPSVFIFPPSDEQLKSGTASVVCLLNNFYPREAKVQWKVDNALQSGNSQESVTEQDSKDSTYSLSSTLTLSKADYEKHKVYACEVTHQGLSSPVTKSFNRGEC
notes: structure 3; CEA x CD3; CH2 DG2CH2
B6: CEA-M3-G2D (bispecific antibody)
chain 1: B5 chain 1 with A510D, D515A
chain 2: B5 chain 2
heavy: B5 heavy with A268D, D273A
light: B5 light
notes: structure 3; CEA x CD3; CH2 G2DCH2
B7: CEA-M3-DG2D (bispecific antibody)
chain 1: B5 chain 1 with D515A
chain 2: B5 chain 2
heavy: B5 heavy with D273A
light: B5 light
notes: structure 3; CEA x CD3; CH2 DG2DCH2
B8: CEA-M3-PG2 (bispecific antibody)
chain 1: B5 chain 1 with C475P, A510D
chain 2: B5 chain 2
heavy: B5 heavy with C233P, A268D
light: B5 light
notes: structure 3; CEA x CD3; CH2 PG2CH2
B9: CEA-M3-SG2 (bispecific antibody)
chain 1: B5 chain 1 with C475S, A510D
chain 2: B5 chain 2
heavy: B5 heavy with C233S, A268D
light: B5 light
notes: structure 3 (fusion heavy chain, cross light chain, heavy, light; the light chain pairs with the heavy and with the fusion heavy chain); CEA x CD3; CH2 SG2CH2
B10: CEA-M3-GG2 (bispecific antibody)
chain 1: B5 chain 1 with C475G, A510D
chain 2: B5 chain 2
heavy: B5 heavy with C233G, A268D
light: B5 light
notes: structure 3; CEA x CD3; CH2 GG2CH2

Key:
[1] = biological target: T1, Human CD3ε (human, UniProt P07766 23-126); assay: flow cytometry, human T cells
T1 construct: CD3 on T cells isolated from human whole blood
How it was run: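 Cells expressing the target antigen (CD38+ MM.1S or RPMI 8226 for CD38; isolated T cells for CD3) were plated at 2×10⁵ per well in 1% FBS-PBS on ice. Antibody was titrated 3-fold over 11 points from 3000 nM and incubated 2 h at 4° C with shaking, followed by PE anti-human IgG Fc.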

[2] = biological target: T2, Monkey CD3 (monkey); assay: flow cytometry, monkey T cells
T2 construct: whole, on cells; also called CD3 of monkey CD3 positive T cells

[3] = biological target: T3, Human BCMA (human, UniProt Q02223 1-54); assay: flow cytometry, human tumor cells (table of the BCMA series)
T3 sequence: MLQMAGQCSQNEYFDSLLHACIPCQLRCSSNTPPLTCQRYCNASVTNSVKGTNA
Text: (§1) 1) Cell preparation: T cells isolated from CD3-positive human whole blood were used for a CD3 end affinity detection of multifunctional antibody molecule; positive tumor cells of corresponding antigen were used for detecting affinity of tumor antigen; for example, CD38-positive MM. 1S cells (purchased from the Cell Resource Center of Shanghai Institutes for Biological Sciences, Chinese Academy of Sciences) or RPMI 8226 cells (purchased from the Cell Resource Center of Shanghai Institutes for Biological Sciences, Chinese Academy of Sciences) were used for CD38 antigen detection, and PD-L1 positive H358 cells (purchased from the Cell Resource Center of Shanghai Institutes for Biological Sciences, Chinese Academy of Sciences) were used for PD-L1 antigen detection, and so on. The cells were resuspended with 1% FBS-PBS, adjusted to a density of 4×10⁶/ml, and 50 μl of cells were taken from each well, and then plated at 2×10⁵ per well. Cell plating was operated on ice
(§2) 2) Addition of the antibody: according to the experimental design, the antibody was diluted gradually, and dilution of antibody was operated on ice. For example, the initial concentration of antibody for dilution was 3000 nM, and the antibody was diluted by 3 times with 11 concentration gradients. The diluted antibody was added to a cell well at 50 μl per well, mixed well, and shaked and incubated at 4° C. 1100 rpm/min for 2 h; after washing, the cells were resuspend in 1% FBS-PBS, and a diluted secondary antibody PE anti-human IgG FC (Biolegend, 409304) was added with a final concentration of 8 ug/ml and a volume of 50 μl/well. At the same time, a well only added with cells and secondary antibody was set as a control, the components were mixed well, and incubated under shaking at 1100 rpm/min at 4° C. for 1 h;
(§3) 5) Data analysis: the data was analyzed by a flow analysis software FlowJo 7.6 thereby obtaining an average fluorescence intensity of the specific antibody concentration, plotted by a Graphpad Prism 5 with the antibody concentration (nM) as an abscissa and the average fluorescence intensity as an ordinate; the EC50 value was calculated by the method of One site—Specific binding, and the EC50 value indicated the cell affinity of the antibody to the corresponding target antigen.

[4] = biological target: T4, human CEA (human, UniProt P06731 35-685); assay: flow cytometry, human tumor cells (CEA+)
T4 sequence: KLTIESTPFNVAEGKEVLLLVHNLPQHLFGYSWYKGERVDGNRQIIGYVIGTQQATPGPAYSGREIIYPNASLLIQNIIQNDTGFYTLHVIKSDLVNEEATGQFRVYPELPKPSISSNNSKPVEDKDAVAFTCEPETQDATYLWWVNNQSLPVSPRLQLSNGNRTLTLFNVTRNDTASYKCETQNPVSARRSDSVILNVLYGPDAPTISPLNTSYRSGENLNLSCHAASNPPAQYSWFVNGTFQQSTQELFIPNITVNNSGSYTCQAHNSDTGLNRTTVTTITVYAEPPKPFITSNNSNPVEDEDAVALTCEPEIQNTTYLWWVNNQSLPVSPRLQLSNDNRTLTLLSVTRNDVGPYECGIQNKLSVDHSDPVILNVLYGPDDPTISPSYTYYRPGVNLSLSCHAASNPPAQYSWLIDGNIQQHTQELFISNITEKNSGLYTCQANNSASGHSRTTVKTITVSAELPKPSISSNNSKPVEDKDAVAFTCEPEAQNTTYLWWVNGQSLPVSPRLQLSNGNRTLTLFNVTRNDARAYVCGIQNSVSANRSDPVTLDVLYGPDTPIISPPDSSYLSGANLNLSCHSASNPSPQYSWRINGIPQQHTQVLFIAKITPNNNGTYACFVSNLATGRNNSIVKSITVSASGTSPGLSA
Text: as §1, §2, §3

Row | Binder | EC50 [1] | EC50 [2] | binding result [3] | EC50 [4]
1 | B1 | 499 nM | 540 nM | no binding | 
2 | B2 | 515 nM | 528 nM | no binding | 
3 | B3 | 547 nM | 561 nM | no binding | 
4 | B4 | 411 nM | 506 nM | no binding | 
5 | B5 | 609 nM |  |  | 31.9 nM
6 | B6 | 670 nM |  |  | 38.4 nM
7 | B7 | 611 nM |  |  | 34.2 nM
8 | B8 | 654 nM |  |  | 41.9 nM
9 | B9 | 631 nM |  |  | 30.5 nM
10 | B10 | 695 nM |  |  | 39.1 nM
